We go through two molecules from CN111777681A (SHANGHAI LIANGYUE BIOMEDICAL TECH CO LTD, dated 2020).

For this assay, the target named is T1, 人Claudin 18.2 (紧密连接蛋白-18.2) (human).
T1 construct: Full-length protein stably expressed on HEK293 or NIH-3T3 cells; also called 紧密连接蛋白18剪接变体2
The assay is described as follows: flow cytometry on HEK293-Claudin 18.2 stable cells, recombinant antibody titrated from 600 nM in 3-fold steps.

T1 sequence (chain, as listed by the source limits assumed): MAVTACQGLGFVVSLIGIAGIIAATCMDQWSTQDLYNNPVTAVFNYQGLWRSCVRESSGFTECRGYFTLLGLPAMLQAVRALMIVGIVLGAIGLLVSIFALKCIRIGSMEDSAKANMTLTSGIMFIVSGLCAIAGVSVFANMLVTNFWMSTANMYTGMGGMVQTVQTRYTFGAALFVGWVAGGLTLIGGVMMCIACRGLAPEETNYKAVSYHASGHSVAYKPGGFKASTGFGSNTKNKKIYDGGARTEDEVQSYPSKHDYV

B1: 3H2-C5 (antibody, V domains shown)
VH: DVQLVESGGGLLQPGGSRKLSCAASGFSFSNFGMHWFRQAPEKGLEWVAFISGGSSPIYYADTVKGRFTISRDNPTNTLFLQMTSLRSEDTAMYYCARFRRGGNAMDYWGQGTSVTVSS
VL: DIVMTQSPSSLTVTAREKVTMSCKSSQSLFNSGNQRNYLTWYQQKPGQPPKLLIYWASTRESGVPDRFTGSGSGTDFTLTIRSVQAEDLAVYYCQNSYSYPFTLGSGTKLEIK
notes: Mouse monoclonal antibody; also called 抗体3H2-C5; 重组抗体3H2-C5
Regarding B1, the EC50 was found to be 1.01 nM.

B2: 4F6-G11 (antibody, V domains shown)
VH: DVQLVESGGGLVQPGGSRKLSCGASGFTFSSFGMHWVRQAPEKGLEWVAYISSDSSTKHYADIVKGRFTVSRDNPRNTLFLQMTSLGSEDTAIYYCARLRRGGNALDYWGQGTSVTVSS
VL: DIVMTQSPSFLTVTAGEKVTMSCRSSQSLLNSGNQRNYLTWYQHKPGQSPKLLIYWASTRESGVPDRFTGSGSGTTFTLTISSVQPEDLAVFYCQNNYYFPFTFGSGTKLEIR
notes: Mouse monoclonal antibody; also called 4F6-Gl1; 重组抗体4F6-G11
Regarding B2, the EC50 amounted to 1.18 nM.
